Measurements: FireProtDB (doi:10.1016/j.jmb.2009.05.011)
Several values for one entry are separate records, joined by “and”; a condition that tells them apart may be missing. Equal values may be shown once.

B1: Dihydrolipoyllysine-residue succinyltransferase component of 2-oxoglutarate dehydrogenase complex, P0AFG6 (parent)
chain: MSSVDILVPDLPESVADATVATWHKKPGDAVVRDEVLVEIETDKVVLEVPASADGILDAVLEDEGTTVTSRQILGRLREGNSAGKETSAKSEEKASTPAQRQQASLEEQNNDALSPAIRRLLAEHNLDASAIKGTGVGGRLTREDVEKHLAKAPAKESAPAAAAPAAQPALAARSEKRVPMTRLRKRVAERLLEAKNSTAMLTTFNEVNMKPIMDLRKQYGEAFEKRHGIRLGFMSFYVKAVVEALKRYPEVNASIDGDDVVYHNYFDVSMAVSTPRGLVTPVLRDVDTLGMADIEKKIKELAVKGRDGKLTVEDLTGGNFTITNGGVFGSLMSTPIINPPQSAILGMHAIKDRPMAVNGQVEILPMMYLALSYDHRLIDGRESVGFLVTIKELLEDPTRLLLDV

Variants of: B1
Conditions: Escherichia coli (strain K12), pH 7, structure 1W4H, whole UniProt chain shown; for Tm / ddG of mutation (higher = less stable) / unfolding enthalpy (van 't Hoff): Thermal, Potassium phosphate 50 mM, KCl 200 mM; for denaturant m value / unfolding free energy / denaturant midpoint (higher = more stable): 10 °C, GdnHCl, 3-[morpholino]propanesulfonic acid 50 mM, NaCl 200 mM

| Variant | Tm (CD) | ddG of mutation (higher = less stable) (CD) | unfolding enthalpy (van 't Hoff) (CD) | denaturant m value (Fluorescence) | unfolding free energy (Fluorescence) | denaturant m value (CD) | denaturant midpoint (higher = more stable) (CD) | unfolding free energy (CD) |
| --- | --- | --- | --- | --- | --- | --- | --- | --- |
| MSSVDILVPDLPESVADATVATWHKKPGDAVVRDEVLVEIETDKVVLEVPASADGILDAVLEDEGTTVTSRQILGRLREGNSAGKETSAKSEEKASTPAQRQQASLEEQNNDALSPGIRRLLAEHNLDASAIKGTGVGGRLTREDVEKHLAKAPAKESAPAAAAPAAQPALAARSEKRVPMTRLRKRVAERLLEAKNSTAMLTTFNEVNMKPIMDLRKQYGEAFEKRHGIRLGFMSFYVKAVVEALKRYPEVNASIDGDDVVYHNYFDVSMAVSTPRGLVTPVLRDVDTLGMADIEKKIKELAVKGRDGKLTVEDLTGGNFTITNGGVFGSLMSTPIINPPQSAILGMHAIKDRPMAVNGQVEILPMMYLALSYDHRLIDGRESVGFLVTIKELLEDPTRLLLDV [A117G] | 49.4 °C | 0.37 kcal/mol | 23 kcal/mol | – | – | – | – | – |
| MSSVDILVPDLPESVADATVATWHKKPGDAVVRDEVLVEIETDKVVLEVPASADGILDAVLEDEGTTVTSRQILGRLREGNSAGKETSAKSEEKASTPAQRQQASLEEQNNDALSPAIRRLLAEHNLDASAIKGTGVGGRLSREDVEKHLAKAPAKESAPAAAAPAAQPALAARSEKRVPMTRLRKRVAERLLEAKNSTAMLTTFNEVNMKPIMDLRKQYGEAFEKRHGIRLGFMSFYVKAVVEALKRYPEVNASIDGDDVVYHNYFDVSMAVSTPRGLVTPVLRDVDTLGMADIEKKIKELAVKGRDGKLTVEDLTGGNFTITNGGVFGSLMSTPIINPPQSAILGMHAIKDRPMAVNGQVEILPMMYLALSYDHRLIDGRESVGFLVTIKELLEDPTRLLLDV [T142S] | – | – | – | 0.53 kcal/mol/M and 0.2 kcal/mol/M | 1.45 kcal/mol | – | – | – |
| MSSVDILVPDLPESVADATVATWHKKPGDAVVRDEVLVEIETDKVVLEVPASADGILDAVLEDEGTTVTSRQILGRLREGNSAGKETSAKSEEKASTPAQRQQASLEEQNNDALSPAIRRLLAEHNLDASAIKGTGVGGRLTREDAEKHLAKAPAKESAPAAAAPAAQPALAARSEKRVPMTRLRKRVAERLLEAKNSTAMLTTFNEVNMKPIMDLRKQYGEAFEKRHGIRLGFMSFYVKAVVEALKRYPEVNASIDGDDVVYHNYFDVSMAVSTPRGLVTPVLRDVDTLGMADIEKKIKELAVKGRDGKLTVEDLTGGNFTITNGGVFGSLMSTPIINPPQSAILGMHAIKDRPMAVNGQVEILPMMYLALSYDHRLIDGRESVGFLVTIKELLEDPTRLLLDV [V146A] | 27.9 °C | 2.02 kcal/mol | 9 kcal/mol | 0.48 kcal/mol/M and 0.16 kcal/mol/M | 0.47 kcal/mol | – | – | – |
| MSSVDILVPDLPESVADATVATWHKKPGDAVVRDEVLVEIETDKVVLEVPASADGILDAVLEDEGTTVTSRQILGRLREGNSAGKETSAKSEEKASTPAQRQQASLEEQNNDALSPAIRRLLAEHNLDASAIKGTGVGGRLTRENVEKHLAKAPAKESAPAAAAPAAQPALAARSEKRVPMTRLRKRVAERLLEAKNSTAMLTTFNEVNMKPIMDLRKQYGEAFEKRHGIRLGFMSFYVKAVVEALKRYPEVNASIDGDDVVYHNYFDVSMAVSTPRGLVTPVLRDVDTLGMADIEKKIKELAVKGRDGKLTVEDLTGGNFTITNGGVFGSLMSTPIINPPQSAILGMHAIKDRPMAVNGQVEILPMMYLALSYDHRLIDGRESVGFLVTIKELLEDPTRLLLDV [D145N] | 13.8 °C | 3.1 kcal/mol | 5 kcal/mol | 0.17 kcal/mol/M | – | – | – | – |
| MSSVDILVPDLPESVADATVATWHKKPGDAVVRDEVLVEIETDKVVLEVPASADGILDAVLEDEGTTVTSRQILGRLREGNSAGKETSAKSEEKASTPAQRQQASLEEQNNDALSAAIRRLLAEHNLDASAIKGTGVGGRLTREDVEKHLAKAPAKESAPAAAAPAAQPALAARSEKRVPMTRLRKRVAERLLEAKNSTAMLTTFNEVNMKPIMDLRKQYGEAFEKRHGIRLGFMSFYVKAVVEALKRYPEVNASIDGDDVVYHNYFDVSMAVSTPRGLVTPVLRDVDTLGMADIEKKIKELAVKGRDGKLTVEDLTGGNFTITNGGVFGSLMSTPIINPPQSAILGMHAIKDRPMAVNGQVEILPMMYLALSYDHRLIDGRESVGFLVTIKELLEDPTRLLLDV [P116A] | 59.1 °C | -0.38 kcal/mol | 24 kcal/mol | – | – | – | – | – |
| MSSVDILVPDLPESVADATVATWHKKPGDAVVRDEVLVEIETDKVVLEVPASADGILDAVLEDEGTTVTSRQILGRLREGNSAGKETSAKSEEKASTPAQRQQASLEEQNNDGLSPAIRRLLAEHNLDASAIKGTGVGGRLTREDVEKHLAKAPAKESAPAAAAPAAQPALAARSEKRVPMTRLRKRVAERLLEAKNSTAMLTTFNEVNMKPIMDLRKQYGEAFEKRHGIRLGFMSFYVKAVVEALKRYPEVNASIDGDDVVYHNYFDVSMAVSTPRGLVTPVLRDVDTLGMADIEKKIKELAVKGRDGKLTVEDLTGGNFTITNGGVFGSLMSTPIINPPQSAILGMHAIKDRPMAVNGQVEILPMMYLALSYDHRLIDGRESVGFLVTIKELLEDPTRLLLDV [A113G] | 53.6 °C | 0.04 kcal/mol | 23 kcal/mol | – | – | – | – | – |
| MSSVDILVPDLPESVADATVATWHKKPGDAVVRDEVLVEIETDKVVLEVPASADGILDAVLEDEGTTVTSRQILGRLREGNSAGKETSAKSEEKASTPAQRQQASLEEQNNDAWSPAIRRLLAEHNLDASAIKGTGVGGRLTREDVEKHLAKAPAKESAPAAAAPAAQPALAARSEKRVPMTRLRKRVAERLLEAKNSTAMLTTFNEVNMKPIMDLRKQYGEAFEKRHGIRLGFMSFYVKAVVEALKRYPEVNASIDGDDVVYHNYFDVSMAVSTPRGLVTPVLRDVDTLGMADIEKKIKELAVKGRDGKLTVEDLTGGNFTITNGGVFGSLMSTPIINPPQSAILGMHAIKDRPMAVNGQVEILPMMYLALSYDHRLIDGRESVGFLVTIKELLEDPTRLLLDV [L114W] | – | – | – | – | 2.22 kcal/mol | 0.67 kcal/mol/M | 3.15 M | 2.11 kcal/mol |
| MSSVDILVPDLPESVADATVATWHKKPGDAVVRDEVLVEIETDKVVLEVPASADGILDAVLEDEGTTVTSRQILGRLREGNSAGKETSAKSEEKASTPAQRQQASLEEQNNDALSPAIRRLLAEWNLDASAIKGTGVGGRLTREDVEKHLAKAPAKESAPAAAAPAAQPALAARSEKRVPMTRLRKRVAERLLEAKNSTAMLTTFNEVNMKPIMDLRKQYGEAFEKRHGIRLGFMSFYVKAVVEALKRYPEVNASIDGDDVVYHNYFDVSMAVSTPRGLVTPVLRDVDTLGMADIEKKIKELAVKGRDGKLTVEDLTGGNFTITNGGVFGSLMSTPIINPPQSAILGMHAIKDRPMAVNGQVEILPMMYLALSYDHRLIDGRESVGFLVTIKELLEDPTRLLLDV [H125W] | 54.1 °C | – | 25 kcal/mol | – | 2.55 kcal/mol | 0.7 kcal/mol/M | 3.96 M | 2.77 kcal/mol |
| MSSVDILVPDLPESVADATVATWHKKPGDAVVRDEVLVEIETDKVVLEVPASADGILDAVLEDEGTTVTSRQILGRLREGNSAGKETSAKSEEKASTPAQRQQASLEEQNNDALSPAIRRLLAEHNLDASAIKGTGVGGRATREDVEKHLAKAPAKESAPAAAAPAAQPALAARSEKRVPMTRLRKRVAERLLEAKNSTAMLTTFNEVNMKPIMDLRKQYGEAFEKRHGIRLGFMSFYVKAVVEALKRYPEVNASIDGDDVVYHNYFDVSMAVSTPRGLVTPVLRDVDTLGMADIEKKIKELAVKGRDGKLTVEDLTGGNFTITNGGVFGSLMSTPIINPPQSAILGMHAIKDRPMAVNGQVEILPMMYLALSYDHRLIDGRESVGFLVTIKELLEDPTRLLLDV [L141A] | 26.4 °C | 2.12 kcal/mol | 10 kcal/mol | 0.48 kcal/mol/M | 0.46 kcal/mol | – | – | – |
